We go through three molecules from paper PMC3183262.

Targets include IF2D1-Klf4-R9 (human, UniProt O43474 1-513); IF2D1-Oct4-R9 (human, UniProt Q01860 1-360); IF2D1-Sox2-R9 (human, UniProt P48431 1-317).
What all share (assay): Ni-NTA pull-down of fluorescent DNA with competition, filter plate

IF2D1-Oct4-R9, sequence (Q01860 whole entry): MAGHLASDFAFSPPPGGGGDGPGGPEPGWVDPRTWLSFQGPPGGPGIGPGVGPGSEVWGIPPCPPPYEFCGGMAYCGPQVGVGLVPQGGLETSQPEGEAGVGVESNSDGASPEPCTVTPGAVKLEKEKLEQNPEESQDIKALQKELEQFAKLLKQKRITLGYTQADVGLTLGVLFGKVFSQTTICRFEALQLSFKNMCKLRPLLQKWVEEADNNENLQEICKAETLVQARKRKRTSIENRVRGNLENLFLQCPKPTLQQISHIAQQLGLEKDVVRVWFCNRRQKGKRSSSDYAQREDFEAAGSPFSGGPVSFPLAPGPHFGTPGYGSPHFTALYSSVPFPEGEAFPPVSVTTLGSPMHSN
IF2D1-Sox2-R9, sequence (P48431 whole entry): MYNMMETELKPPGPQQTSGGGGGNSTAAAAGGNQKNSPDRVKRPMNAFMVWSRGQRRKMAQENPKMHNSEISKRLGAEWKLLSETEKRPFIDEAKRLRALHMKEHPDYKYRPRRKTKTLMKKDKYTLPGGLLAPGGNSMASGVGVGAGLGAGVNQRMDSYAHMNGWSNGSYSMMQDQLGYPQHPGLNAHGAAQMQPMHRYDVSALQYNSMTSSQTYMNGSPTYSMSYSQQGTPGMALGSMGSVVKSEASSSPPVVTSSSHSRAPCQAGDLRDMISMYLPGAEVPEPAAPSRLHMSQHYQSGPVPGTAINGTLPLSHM
IF2D1-Klf4-R9, sequence (O43474 whole entry): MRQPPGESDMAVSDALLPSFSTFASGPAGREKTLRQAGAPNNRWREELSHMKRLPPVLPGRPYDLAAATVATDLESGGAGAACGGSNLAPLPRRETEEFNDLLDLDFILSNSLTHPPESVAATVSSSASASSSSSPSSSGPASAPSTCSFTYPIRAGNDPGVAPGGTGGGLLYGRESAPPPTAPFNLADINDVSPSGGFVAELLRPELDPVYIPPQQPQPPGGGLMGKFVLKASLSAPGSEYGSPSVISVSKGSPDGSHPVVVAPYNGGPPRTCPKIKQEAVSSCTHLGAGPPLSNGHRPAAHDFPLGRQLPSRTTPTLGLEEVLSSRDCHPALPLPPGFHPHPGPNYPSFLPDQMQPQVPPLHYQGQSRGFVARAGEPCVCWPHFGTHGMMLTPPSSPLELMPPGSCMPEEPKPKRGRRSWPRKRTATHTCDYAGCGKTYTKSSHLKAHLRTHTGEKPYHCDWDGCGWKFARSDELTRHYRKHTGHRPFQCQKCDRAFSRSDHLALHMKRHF

B1: Klf4 cognate probe (dsDNA)
DNA 1: CAGAGAACCCCACCCATAAACCCCACCCATAAACCCCACCCCG
DNA 2: CGGGGTGGGGTTTATGGGTGGGGTTTATGGGTGGGGTTCTCTG
Turning to B1, the binding result with IF2D1-Klf4-R9 is “binds”.

B2: Oct4 cognate probe (dsDNA)
DNA 1: CAGAGAGATGCATGTGAGATGCATGTGAGATGCATCG
DNA 2: CGATGCATCTCACATGCATCTCACATGCATCTCTCTG
On to B2, for which, in the data set with IF2D1-Oct4-R9, the binding result is recorded as “binds”.

B3: Sox2 cognate probe (dsDNA)
DNA 1: CAGAGGACAAAGGTGGACAAAGGTGGACAAAGCG
DNA 2: CGCTTTGTCCACCTTTGTCCACCTTTGTCCTCTG
For B3, the binding result in the data set with IF2D1-Sox2-R9 is listed as “binds”.
